Consider two molecules from patent publication US20260209291A1 (KAMINO, published 2026).

In test [1] the target is VEGF (Vascular Endothelial Growth Factor) (UniProt P15692-4 27-191). Put plainly: SPR (Biacore 3000, 25 °C): compound captured to about 1,000 RU on a CM5 chip with the mouse antibody capture kit, VEGF injected for 120 s, 300 s dissociation; negative control. How it is done: (§1) Surface plasmon resonance (SPR) experiments were carried out on a Biacore 3000 (Cytiva). A CM5 chip for capture of the compounds was prepared according to the instructions of the mouse antibody capture kit (Cytiva, #BR100838). VGFR(½)-mFc-FSD1, TNFR2-mFc-FSD1, VGFR(½)/FST291-mFc, TNFR2/FST291-mFc, VGFR(½)-hFc (Aflibercept), TNFR2-hFc (Etanercept), and FST315dHBS-mFc (SEQ ID NO: 30, SEQ ID NO: 31) were captured to approximately 1,000 RU (Resonance Units). TNFα (R&D Systems, #210-TA-005,) or VEGF (R&D Systems, #293-VE-010) were then injected for 120 s followed by a 300 s dissociation phase. At the end of each binding cycle, non-covalently attached molecules were removed from both surfaces by a 180 s regeneration with 10 mM glycine, pH 1.7. All proteins were diluted in running buffer ([…], pH 7.5, […], 2 mM CaCl₂) and 0.05% Tween 20). A flow rate of 30 μl/min was used in all steps of the experiments. Binding analysis was performed at 25° C., and data were collected at a rate of 1 Hz. Using the BIAevaluation 4.1.1 software (Cytiva), recorded signals were referenced; the signal from the in-line reference flow cell was subtracted as was the signal from a blank run (0 nM analyte).
Chain of VEGF (Vascular Endothelial Growth Factor) (P15692 other isoform, or with tags, fused parts or gaps limits assumed): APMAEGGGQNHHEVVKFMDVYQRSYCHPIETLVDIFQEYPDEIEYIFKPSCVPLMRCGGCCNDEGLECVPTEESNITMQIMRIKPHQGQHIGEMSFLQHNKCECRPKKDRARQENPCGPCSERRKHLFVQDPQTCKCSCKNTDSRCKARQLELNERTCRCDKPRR
For orientation: Surface plasmon resonance follows binding to a sensor surface in real time, without labels.

Another test concerns the target T1, activin A (human, UniProt P08476 311-426).
T1 sequence: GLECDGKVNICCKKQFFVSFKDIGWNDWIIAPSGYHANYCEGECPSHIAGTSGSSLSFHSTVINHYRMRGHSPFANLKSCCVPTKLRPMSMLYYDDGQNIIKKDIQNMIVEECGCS
Put plainly: cell-based or functional assay.

For test [2], the target named is TNFα (Tumor Necrosis Factor alpha) (UniProt P01375 77-233). Description: SPR (Biacore 3000, 25 °C): compound captured to about 1,000 RU on a CM5 chip with the mouse antibody capture kit, TNFα injected for 120 s, 300 s dissociation; negative control. How it is done:
as §1

The target in test [3] is T2, GDF11 (Growth Differentiation Factor 11) (Homo sapiens (Human), UniProt O95390 299-407).
T2 sequence: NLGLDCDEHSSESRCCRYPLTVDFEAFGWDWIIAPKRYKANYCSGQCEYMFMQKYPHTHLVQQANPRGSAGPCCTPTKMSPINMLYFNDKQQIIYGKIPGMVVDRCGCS
Put plainly: cell-based or functional assay.

Another test deals with T3, myostatin (Homo sapiens (Human), UniProt O14793 267-375).
T3 sequence: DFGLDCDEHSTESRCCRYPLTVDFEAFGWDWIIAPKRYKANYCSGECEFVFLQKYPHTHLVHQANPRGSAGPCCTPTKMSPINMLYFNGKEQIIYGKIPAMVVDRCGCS
Description: cell-based or functional assay.

The target in test [4] is T4, vimentin (endogenous, in HEK293 cells) (human (HEK293 cells), UniProt P08670 2-466).
T4 construct: whole, on cells; Intracellular filament protein, inside the cells and not on their surface
T4 sequence (P08670 2-466): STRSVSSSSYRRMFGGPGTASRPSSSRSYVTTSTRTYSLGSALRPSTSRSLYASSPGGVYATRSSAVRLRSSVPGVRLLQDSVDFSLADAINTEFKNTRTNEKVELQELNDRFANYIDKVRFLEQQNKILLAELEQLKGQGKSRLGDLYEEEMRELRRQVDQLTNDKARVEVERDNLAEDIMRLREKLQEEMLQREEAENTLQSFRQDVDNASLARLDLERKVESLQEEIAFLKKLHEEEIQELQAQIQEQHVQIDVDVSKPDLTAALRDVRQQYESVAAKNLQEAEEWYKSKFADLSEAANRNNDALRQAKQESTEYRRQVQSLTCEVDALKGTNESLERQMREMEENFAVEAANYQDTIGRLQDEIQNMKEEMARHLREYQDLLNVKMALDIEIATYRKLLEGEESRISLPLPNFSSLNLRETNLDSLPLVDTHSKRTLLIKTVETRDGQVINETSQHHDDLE
Put plainly: confocal imaging of adherent HEK293 cells after 18 hours with 1 µM ATTO 488 labelled compound; the filing reads the filaments as vimentin; no vimentin co-stain on the sheet. How it is done:
(§2) After labeling, compound concentration was determined using the Pierce Coomassie (Bradford) Protein Assay Kit (Thermo Scientific, #23200).
Briefly, HEK293 cells were seeded on a cover slip glass (Thorlabs, #CG15NH) treated with poly-D-lysine (ThermoFisher, #A3890401) to promote adhesion. Cells were seeded in DMEM (ThermoFisher, #11995073) supplemented with 10% fetal bovine serum (FBS). After 24 hours, cells were washed with PBS and compounds (1 μM) were added in 100% DMEM without FBS. A control sample using 100% DMEM without added compound was also included. After 3 hours and 18 hours of incubation, cells were washed 3 times with PBS. […] Cells were then washed 3 times with PBS and fixed using 4% formalin for 30 minutes. Cover slips were mounted using ProLong Glass Antifade Mountant (ThermoFisher, #P36980). Confocal imaging was conducted using a Zeiss LSM800 laser scanning confocal microscope (Carl Zeiss Microscopy GmbH, Oberkochen, Germany) equipped with 2 GaAsP and one Airyscan detector and Zen Blue Edition software (Carl Zeiss Microscopy GmbH, version 2.5). Confocal images were taken with the PlanApo x63 Oil NA 1.4 objective. […] Lysotracker Red DND-99 was excited using a 561 nm diode laser at 2.60% (both 3-hour and 18-hour samples) and detected at wavelengths 575-700 nm. For each sample, a Z-stack was recorded with an interval of 0.270 μm (3-hour samples) or 0.170 μm (18-hour samples). […]

In test [5] the target is T5, vimentin (endogenous, in mouse gastrocnemius muscle connective tissue cells) (mouse, UniProt P20152 2-466).
T5 construct: whole, on cells; Intracellular filament protein, inside the cells and not on their surface
T5 sequence (P20152 2-466): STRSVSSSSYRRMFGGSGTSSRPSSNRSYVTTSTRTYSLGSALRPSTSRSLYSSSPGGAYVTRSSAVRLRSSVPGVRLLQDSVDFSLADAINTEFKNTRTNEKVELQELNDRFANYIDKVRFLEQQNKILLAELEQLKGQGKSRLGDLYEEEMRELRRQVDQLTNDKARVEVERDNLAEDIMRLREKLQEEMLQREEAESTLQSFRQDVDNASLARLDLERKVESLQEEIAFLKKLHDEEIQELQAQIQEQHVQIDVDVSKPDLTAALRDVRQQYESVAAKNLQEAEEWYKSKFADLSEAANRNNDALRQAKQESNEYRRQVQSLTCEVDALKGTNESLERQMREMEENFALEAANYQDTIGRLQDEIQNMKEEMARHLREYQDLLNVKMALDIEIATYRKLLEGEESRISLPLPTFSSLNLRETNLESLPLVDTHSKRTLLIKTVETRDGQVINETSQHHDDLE
Put plainly: confocal imaging of sections of mouse gastrocnemius muscle 18 hours after intramuscular injection of 8 µg ATTO 488 labelled compound; the filing reads the filaments as vimentin; no vimentin co-stain on the sheet. As for the experimental part: as §2
Two 12-week-old female BALB/c mice were allocated for injection with either anti-vimentin-nanobody-FSD1 (type 1 compound, n=1) or anti-vimentin-nanobody (n=1). During anaesthesia, the right hind limb was shaved to expose the calf muscles. A single dose of 8 μg, fluorescently labeled compound was administered intramuscularly in a volume of 5 μl in the gastrocnemius muscle. Mice received a subcutaneous injection of pain relief (Carprofen 5 mg/kg) to counter any pain resulting from tension in the muscle. Eighteen hours after injection, the gastrocnemius muscle was dissected and immersion-fixed in 4% formaldehyde. The gastrocnemius muscle was ethanol dehydrated, embedded in paraffin, and sectioned at 4 μm thickness using a microtome. Sections were left unstained and mounted with DAPI containing mountant (#P36962, ProLong Diamond Antifade Mountant with DAPI) on microscope slides. […] DAPI was excited using a 405 nm diode laser at 1.00% and detected at wavelengths […]. For each sample, a Z-stack was recorded with an interval of 0.190 μm. […]

Chain of TNFα (Tumor Necrosis Factor alpha) (P01375 77-233 limits assumed): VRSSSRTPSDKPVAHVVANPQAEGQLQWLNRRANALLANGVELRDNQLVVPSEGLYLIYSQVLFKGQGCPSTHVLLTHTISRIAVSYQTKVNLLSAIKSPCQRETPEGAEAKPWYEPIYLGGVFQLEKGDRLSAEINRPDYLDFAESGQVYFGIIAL

B1: FST315dHBS-mFc (Fc fusion)
chain: GNCWLRQAKNGRCQVLYKTELSKEECCSTGRLSTSWTEEDVNDNTLFKWMIFNGGAPNCIPCKETCENVDCGPGSTCVVDQTNNPRCVCAPDCSNITWKGPVCGLDGKTYRNECALLKARCKEQPELEVQYQGRCKKTCRDVFCPGSSTCVVDQTNNAYCVTCNRICPEPASSEQYLCGNDGVTYSSACHLRKATCLLGRSIGLAYEGKCIKAKSCEDIQCTGGKKCLWDFKVGRGRCSLCDELCPDSKSDEPVCASDNATYASECAMKEAACSSGVLLEVKHSGSCNSISEDTEEEEEDEDQDYSFPISSILEWPRGPTIKPCPPCKCPAPNLLGGPSVFIFPPKIKDVLMISLSPIVTCVVVDVSEDDPDVQISWFVNNVEVHTAQTQTHREDYNSTLRVVSALPIQHQDWMSGKEFKCKVNNKDLPAPIERTISKPKGSVRAPQVYVLPPPEEEMTKKQVTLTCMVTDFMPEDIYVEWTNNGKTELNYKNTEPVLDSDGSYFMYSKLRVEKKNWVERNSYSCSVVHEGLHNHHTTKSFSRTPGK
Take B1: the binding result in test [1] is “no binding (tested: 25 nM VEGF)”; in test [2] it was “no binding (tested: 50 nM TNFα)”. Besides, the “IC50, neutralisation of 1 ng/mL activin A (pSmad2/3 luciferase reporter, HEK293 cells)” value in the test with activin A was 47 pM. In addition, the “IC50, neutralisation of 1 ng/mL GDF11 (pSmad2/3 luciferase reporter, HEK293 cells)” value in test [3] was 205 pM. For the same molecule, in the test with myostatin, the “IC50, neutralisation of 1 ng/mL myostatin (pSmad2/3 luciferase reporter, HEK293 cells)” value is 225 pM.

B2: anti-vimentin-nanobody-FSD1 (VHH)
VHH: QVQLVESGGGLVQSGGSLTLTCAASGFTFSAASMRWVRQVPGKGLEWVATIDGTGANSYYSESAKGRFTISRDNARNTLYLQMNNLKPDDTAVYYCANFGRNYWGKGTQVTVSS
modifications: ATTO 488 fluorescent label, sites not stated
notes: also called anti-vimentin-nb-FSD1; type 1 design compound
Turning to B2, the binding result in test [4] and in test [5] was “binds” throughout.
